Molecular target: variola virus topoisomerase IB (vTopIB) (variola virus (smallpox), UniProt P32989 1-314)
Test: X-ray crystallography

variola virus topoisomerase IB (vTopIB), sequence (P32989 whole entry): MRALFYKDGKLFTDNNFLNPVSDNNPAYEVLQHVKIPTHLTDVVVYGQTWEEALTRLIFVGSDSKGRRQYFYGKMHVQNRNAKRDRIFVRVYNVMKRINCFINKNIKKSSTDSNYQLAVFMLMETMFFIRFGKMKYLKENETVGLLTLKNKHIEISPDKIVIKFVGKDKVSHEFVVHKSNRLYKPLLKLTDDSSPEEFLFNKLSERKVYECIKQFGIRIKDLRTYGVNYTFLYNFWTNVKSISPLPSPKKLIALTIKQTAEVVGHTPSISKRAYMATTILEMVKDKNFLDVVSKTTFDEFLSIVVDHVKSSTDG

B1: nicked vTopIB-binding duplex (three oligonucleotides) (dsDNA)
DNA 1: GTGTCGCCCTT
DNA 2: ATTCC
DNA 3: CGGAATAAGGGCGACA
modifications: nick at the scissile phosphate (phosphodiester missing), filled by vanadate in the crystal
B1: binds.

From article PMC2822398
